According to patent US11788108B2, “CMP-dependent sialidase activity” (Roche Diagnostics Operations, Inc., priority 2014, dated 2023):
Blank lines part the entries; values can stand above or below the molecule they belong to.

Experiments:
[1] = target: T1, α-2,6-sialyltransferase from rat liver (Rattus norvegicus, UniProt P13721); details: each inhibitor at 0.25 mM; cited from earlier work
T1 construct: host or cells: rat liver
T1 sequence (P13721 1-403): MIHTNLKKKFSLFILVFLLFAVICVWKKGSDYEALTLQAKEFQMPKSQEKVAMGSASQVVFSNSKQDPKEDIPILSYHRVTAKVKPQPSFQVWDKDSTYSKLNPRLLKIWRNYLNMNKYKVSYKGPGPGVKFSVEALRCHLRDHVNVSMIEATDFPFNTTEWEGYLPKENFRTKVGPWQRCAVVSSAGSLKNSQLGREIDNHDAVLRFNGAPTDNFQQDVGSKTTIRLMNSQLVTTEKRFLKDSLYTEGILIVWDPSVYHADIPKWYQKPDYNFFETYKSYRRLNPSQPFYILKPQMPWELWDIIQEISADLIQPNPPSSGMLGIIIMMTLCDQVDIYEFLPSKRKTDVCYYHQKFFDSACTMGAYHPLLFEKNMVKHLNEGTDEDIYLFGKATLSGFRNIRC

Δ89 hST6Gal-I = target: T2, Δ89 hST6Gal-I (Homo sapiens, UniProt P15907); assay: Inhibition of sialidase activity of Δ89 hST6Gal-I by CTP; type: biochemical
T2 construct: Erythropoietin signal peptide (Epo) (N, cleaved yes); AP spacer (N, cleaved yes); made in house; host or cells: HEK 293 cells (transient expression, secreted)
T2 sequence (P15907 90-406): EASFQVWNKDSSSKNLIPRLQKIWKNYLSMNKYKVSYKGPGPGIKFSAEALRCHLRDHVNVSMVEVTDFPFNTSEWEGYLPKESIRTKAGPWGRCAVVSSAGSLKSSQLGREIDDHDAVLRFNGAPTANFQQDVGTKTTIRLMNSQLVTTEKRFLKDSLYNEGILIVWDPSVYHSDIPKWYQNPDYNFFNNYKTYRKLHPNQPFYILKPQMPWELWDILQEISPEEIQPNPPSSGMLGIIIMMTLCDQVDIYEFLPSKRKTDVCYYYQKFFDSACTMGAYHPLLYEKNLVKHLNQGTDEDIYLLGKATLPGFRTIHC
Method: The compound cytidine-5′-triphosphate (CTP) is a known potent inhibitor of sialyltransferases (Scudder P R & Chantler E N BBA 660 (1981) 136-141). […] In the first phase of the experiment the sialylation of IgG4 MAB by Δ89 hST6Gal-I was performed to achieve a high content of G2+2SA (see Example 10). After 7 h of incubation the G2+2SA content was 94%. Subsequently, CTP was added to inhibit the sialidase activity of Δ89 hST6Gal-I (final concentration of CTP: 0.67 mM). At different times samples were taken and the content of G2+0SA, G2+1SA and G2+2SA was determined by mass spectrometry. […] After 72 h of incubation 73% of G2+2SA were still present.

asialofetuin = assay: Test for sialyltransferase enzymatic activity (transfer of sialic acid from CMP-9-fluoro-NANA to asialofetuin); type: biochemical; details: recombinant enzyme purified from HEK cells
Method: Asialofetuin (desialylated fetuin, Roche Applied Science) was used as acceptor and CMP-9-fluoro-NANA (CMP-9-fluoresceinyl-NeuAc) was used as donor substrate (Brossmer, R. & Gross H. J. (1994) Meth. Enzymol. 247, 177-193). Enzymatic activity of a sialyltransferase was determined by measuring the transfer of sialic acid from the donor compound to asialofetuin. The reaction mix (35 mM MES, pH 6.0, 0.035% TRITON™ X-100 (C16H26O2), 0.07% BSA) contained 2.5 μg of enzyme sample, 5 μL asialofetuin (20 mg/mL) and 2 μL CMP-9-fluoro-NANA (1.0 mg/mL) in a total volume of 51 μL. The reaction mix was incubated at 37° C. for 30 min. The reaction was stopped by the addition of 10 μL of the inhibitor CTP (10 mM). The reaction mix was loaded onto a PD10 desalting column equilibrated with 0.1 M Tris/HCl, pH 8.5. Fetuin was eluted from the column using the equilibration buffer. The fractions size was 1 mL. The concentration of formed fetuin was determined using a fluorescence spectrophotometer. Excitation wave length was 490 nm, emission was measured at 520 nm. Enzymatic activity was expressed as RFU (relative fluorescence unit). 10,000 RFU/μg is equivalent to a specific activity of 0.0839 nmol/μg×min.

IgG1 MAB G2+2SA = assay: Sialidase activity on IgG1 MAB G2+2SA in the presence and absence of CMP; type: biochemical; details: for sialidase activity in the presence of CMP: CMP 10-fold molar excess, 37° C., pH 6.5, 125 μg enzyme/1,250 μg IgG1 MAB
Method: Cytidine monophosphate (5′-CMP, =CMP) is a product of the reaction catalyzed by sialyltransferase enzymes, generated in the course of the glycosyltransferase reaction from the co-substrate CMP-NANA. With incubation time of a sialylation reaction CMP accumulates in the reaction mixture.
To an amount of 1,250 μg (in 194 μL) highly sialylated IgG1 MAB according to Example 12 with an incubation period for sialylation of 8 h, 125 μg sialyltransferase variant (30 μg/300 μg IgG1 MAB) was added.
Different N-terminally truncated hST6Gal-I enzyme variants were tested for CMP-dependent sialidase activity: • Δ89 hST6Gal-I (Example 9) • Δ108 hST6Gal-I (Example 9) • Δ57 hST3Gal-I (obtained from R&D Systems)
Four different experiments were made using Δ89 hST6Gal-I (16.8 μL with 125 μg), Δ108 hST6Gal-I (17.3 μL with 125 μg), Δ57 hST3Gal-I (20.1 μL with 125 μg) and a negative control (no enzyme, 20.1 μL ultrapure water). The enzymes were tested for sialidase activity in the absence and presence of CMP (10-fold excess based on molarity). The concentrations were as shown as follows:
The samples were incubated at 37° C. in 20 mM sodium citrate, 35 mM Tris pH 6.5. Aliquots were taken as samples after different incubation times, and were analyzed.
To analyze the degree of sialylation of IgG1 MAB in the samples, 124 μL denaturing buffer (6 M Guanidinium chloride in water) and 30 μL TCEP (=tris(2-carboxyethyl)phosphine; 0.1 mM, diluted in denaturing buffer) were added to 76 μL (corresponding to 250 μg IgG1 MAB) and the sample was incubated at 37° C. for 1 h. After that the sample was buffered in electrospray medium (20% ACN (=acetonitrile), 1% FA (=formamide)) using pre-equilibrated ILLUSTRA™ NAP™5-Columns (GE-Healthcare). Subsequently the sample was analyzed by electrospray ionization mass spectrometry and the content of G2+0SA, G2+1SA and G2+2SA N-glycans was determined. A Synapt G2 HDMS device (Waters UK) was used, the software used was MassLynx V 4.1.

[2] = target: T3, CMP-dependent sialidase activity of Δ89 hST6Gal-I (Homo sapiens, UniProt P15907); assay: Sialylation of IgG4 MAB using Δ89 hST6Gal-I in the presence of phosphatase enzymatic activity; type: biochemical; details: CMP degraded by dephosphorylating enzymes
T3 construct: Erythropoietin signal peptide (Epo) (N, cleaved yes); AP spacer (N, cleaved yes); made in house; host or cells: HEK 293 cells (transient expression, secreted)
T3 sequence (P15907 90-406): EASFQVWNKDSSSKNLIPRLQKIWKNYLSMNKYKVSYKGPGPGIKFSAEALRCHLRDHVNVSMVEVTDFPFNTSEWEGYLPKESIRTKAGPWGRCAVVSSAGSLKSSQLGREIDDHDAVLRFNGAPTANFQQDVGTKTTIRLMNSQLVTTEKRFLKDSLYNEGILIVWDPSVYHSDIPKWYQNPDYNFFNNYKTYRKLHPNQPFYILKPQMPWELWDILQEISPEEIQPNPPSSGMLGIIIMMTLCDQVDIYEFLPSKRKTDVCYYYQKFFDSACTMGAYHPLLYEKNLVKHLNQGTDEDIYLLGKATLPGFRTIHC
Source text: Suppression of CMP-dependent sialidase activity of Δ89 hST6Gal-I was studied by continuous removal of CMP formed during the reaction.
In the experiments the enzymes (i) 5′-nucleotidase (EC 3.1.3.5) having a wide specificity for 5′-nucleotides, and (ii) alkaline phosphatase (EC 3.1.3.1) (both provided by commercial suppliers) were used. The particular 5′-nucleotidase used here is also known as ecto-5′-nucleotidase or CD73 (Cluster of Differentiation 73), in humans encoded by the NT5E gene. Both enzymes dephosphorylate CMP, i.e. catalyze hydrolysis of the phosphoester bond in CMP. In the experiments of this Example the enzymes were used to degrade CMP generated by the sialyltransferase reaction from the co-substrate CMP-NANA.
To 1,000 μg IgG4 MAB (182 μL) 500 μg CMP-NANA (3 mg/mL, 166.7 μL), 100 μg Δ89 hST6Gal-I (13.4 μL, 30 μg/300 μg IgG4 MAB) and different amounts of nucleotidase (Nu) and alkaline phosphatase (AP) were added. As Zn^2+ ions are essential for the activity of AP, these were added to a final concentration of 0.1 mM). The buffer used was 20 mM sodium acetate/Tris, pH 6.5. […]
After addition of the respective amounts of enzymes the samples were incubated at 37° C. […] Then the sample was analyzed by electrospray ionization mass spectrometry, and the content of G2+0SA, G2+1SA and G2+2SA N-glycans was determined. […]

IgG4 MAB = assay: Sialylation of humanized monoclonal antibody IgG4 MAB using Δ89 hST6Gal-I, mass spectrometry; type: biochemical
Method: A highly galactosylated humanized monoclonal antibody IgG4 MAB was used in sialylation experiments. The reaction mixture contained IgG4 MAB (300 μg in 55 μL 35 mM sodium actetate/Tris buffer pH 7.0), the donor substrate CMP-NANA (150 μg in 50 μL water) and sialyltransferase (30 μg Δ89 hST6Gal-I in 20 mM potassium phosphate, 0.1 M NaCl, pH 6.5). The samples were incubated at 37° C. for a defined time. To stop the reaction the samples were frozen at −20° C. For mass analysis 100 μL denaturing buffer (6 M guanidinium chloride) and 30 μL TCEP (=tris(2-carboxyethyl)phosphine; 0.1 mM, diluted in denaturing buffer) were added to the samples and the samples were incubated at 37° C. for 1 h. The samples were buffered in electrospray medium [20% ACN (=acetonitrile), 1% FA (=formamide)] using pre-equilibrated Illustra™ Nap5-Columns (GE-Healthcare). Samples were analyzed by electrospray ionization mass spectrometry and the content of G2+0SA, G2+1SA and G2+2SA N-glycans was determined. A Micromass Q-Tof Ultima and a Synapt G2 HDMS device (Waters UK) were used, the software used was MassLynx V 4.1. To determine the kinetics of the sialylation the reaction was incubated up to 72 h.

Molecule: Nc1ccn([C@@H]2O[C@H](CO)[C@@H](O)[C@H]2OP(=O)(O)O)c(=O)n1 [2′-CMP]
inhibition of α-2,6-sialyltransferase [1]: 40%

Molecule: Nc1ccn([C@@H]2O[C@H](CO)[C@@H](OP(=O)(O)O)[C@H]2O)c(=O)n1 [3′-CMP]
inhibition of α-2,6-sialyltransferase [1]: 39%

degradation of G2+2SA caused by the sialidase activity (Δ89 hST6Gal-I; CTP 0.67 mM, compared to inhibitor-free conditions): significantly reduced
G2+2SA still present (Δ89 hST6Gal-I; after 72 h of incubation, CTP final concentration 0.67 mM added after 7 h): 73%
Molecule: Nc1ccn([C@@H]2O[C@H](COP(=O)(O)OP(=O)(O)OP(=O)(O)O)[C@@H](O)[C@H]2O)c(=O)n1 [CTP, cytidine-5′-triphosphate]

degradation of G2+2SA without CMP (IgG1 MAB G2+2SA; reaction mixture without CMP, incubation for 46 h): no degradation
B1: Δ89 hST6Gal-I: human β-galactoside-α-2,6-sialyltransferase I variant with truncation deletion of the first 89 N-terminal amino acids (protein)
chain: EASFQVWNKDSSSKNLIPRLQKIWKNYLSMNKYKVSYKGPGPGIKFSAEALRCHLRDHVNVSMVEVTDFPFNTSEWEGYLPKESIRTKAGPWGRCAVVSSAGSLKSSQLGREIDDHDAVLRFNGAPTANFQQDVGTKTTIRLMNSQLVTTEKRFLKDSLYNEGILIVWDPSVYHSDIPKWYQNPDYNFFNNYKTYRKLHPNQPFYILKPQMPWELWDILQEISPEEIQPNPPSSGMLGIIIMMTLCDQVDIYEFLPSKRKTDVCYYYQKFFDSACTMGAYHPLLYEKNLVKHLNQGTDEDIYLLGKATLPGFRTIHC
modifications: delta89 truncation variant of hST6Gal-I
notes: human β-galactoside-α-2,6-sialyltransferase I variant with truncation deletion of the first 89 N-terminal amino acids
specific activity (asialofetuin): 3.75 nmol/pg/min
sialidase activity in the presence of CMP (IgG1 MAB G2+2SA): showed a CMP-dependent sialidase activity
intrinsic sialidase activity in the absence of CMP [2]: no intrinsic sialidase activity
content of the bi-sialylated form G2+2SA (IgG4 MAB; after 2 h of incubation, 37° C., 30 μg enzyme/300 μg IgG4 MAB): 88%
G2+2SA content (IgG4 MAB; after 7 h of incubation, before CTP addition): 94%
G2+1SA content (IgG4 MAB; after an incubation of 48 h, 37° C.): 71%

B2: Δ108 hST6Gal-I: soluble human β-galactoside-α-2,6-sialyltransferase I variant lacking N-terminal amino acids from position 1 to 108 (protein)
chain: LQKIWKNYLSMNKYKVSYKGPGPGIKFSAEALRCHLRDHVNVSMVEVTDFPFNTSEWEGYLPKESIRTKAGPWGRCAVVSSAGSLKSSQLGREIDDHDAVLRFNGAPTANFQQDVGTKTTIRLMNSQLVTTEKRFLKDSLYNEGILIVWDPSVYHSDIPKWYQNPDYNFFNNYKTYRKLHPNQPFYILKPQMPWELWDILQEISPEEIQPNPPSSGMLGIIIMMTLCDQVDIYEFLPSKRKTDVCYYYQKFFDSACTMGAYHPLLYEKNLVKHLNQGTDEDIYLLGKATLPGFRTIHC
modifications: delta108 truncation variant of hST6Gal-I
specific activity (asialofetuin): > 600 RFU/pg
sialidase activity in the presence of CMP (IgG1 MAB G2+2SA): did not show any sialidase activity
